Measured values: patent US20250073302A1 (PURDUE RESEARCH FOUNDATION, published 2025)
Non-standard residues stand in square brackets, D forms with d. No end group written: not given here. dPra = C#CC[C@@H](N)C(=O)O; dDap = NC[C@@H](N)C(=O)O

B1: CyPPS9 (peptide)
peptide: cyclo(V[dL]F[dF]R[dA])
SMILES: CC(C)C[C@H]1NC(=O)[C@H](C(C)C)NC(=O)[C@@H](C)NC(=O)[C@H](CCCNC(=N)N)NC(=O)[C@@H](Cc2ccccc2)NC(=O)[C@H](Cc2ccccc2)NC1=O
B2: CyPPS23 (peptide)
peptide: cyclo(T[dL]F[dF]R[dDap])
SMILES: CC(C)C[C@H]1NC(=O)[C@H]([C@@H](C)O)NC(=O)[C@@H](CN)NC(=O)[C@H](CCCNC(=N)N)NC(=O)[C@@H](Cc2ccccc2)NC(=O)[C@H](Cc2ccccc2)NC1=O
B3: CyPPS1 (peptide)
peptide: cyclo(T[dL]F[dF]R[dA])
SMILES: CC(C)C[C@H]1NC(=O)[C@H]([C@@H](C)O)NC(=O)[C@@H](C)NC(=O)[C@H](CCCNC(=N)N)NC(=O)[C@@H](Cc2ccccc2)NC(=O)[C@H](Cc2ccccc2)NC1=O
B4: CyPPS14 (peptide)
peptide: cyclo(T[dPra]F[dF]R[dA])
SMILES: C#CC[C@H]1NC(=O)[C@H]([C@@H](C)O)NC(=O)[C@@H](C)NC(=O)[C@H](CCCNC(=N)N)NC(=O)[C@@H](Cc2ccccc2)NC(=O)[C@H](Cc2ccccc2)NC1=O
B5: CyPPS13 (peptide)
peptide: cyclo(T[dV]F[dF]R[dA])
SMILES: CC(C)[C@H]1NC(=O)[C@H]([C@@H](C)O)NC(=O)[C@@H](C)NC(=O)[C@H](CCCNC(=N)N)NC(=O)[C@@H](Cc2ccccc2)NC(=O)[C@H](Cc2ccccc2)NC1=O
B6: CyPPS8 (peptide)
peptide: cyclo(D[dL]F[dF]R[dA])
SMILES: CC(C)C[C@H]1NC(=O)[C@H](CC(=O)O)NC(=O)[C@@H](C)NC(=O)[C@H](CCCNC(=N)N)NC(=O)[C@@H](Cc2ccccc2)NC(=O)[C@H](Cc2ccccc2)NC1=O

How the values were obtained:
Assay in all cases: cell-based or functional assay
[1] = biological target: 20S core particle (CP) proteasome
[2] = biological target: 20S core particle (CP) proteasome; remark: listed apart in the source
[3] = biological target: cytosolic proteasome in HEK293 T cells

Binder	TAS-1 (percent stimulation of 20S CP) [1]	EC50, dose-response of 20S CP stimulation [2] [µM]	Emax, dose-response of 20S CP stimulation [2]	In-Cellulo (flow cytometry with epoxomicin probe, HEK293 T cells) [3] [not printed]
B1	310 % of DMSO	–	–	–
B2	352 % of DMSO	4.1	391	247
B3	340 % of DMSO	6.4	283	235
B4	388 % of DMSO	12.1	514	231
B5	422 % of DMSO	4	394	174
TLFFRA (also: linear version of CyPPS1, D-residues not given here) [PPS1]	126 % of DMSO	–	–	83.7
B6	372 % of DMSO	14.2	701	161
